{"source": "patent US20200024330A1", "assay_in_all_cases": "cell-based or functional assay", "key": {"[1]": {"molecular_target": "HIV-1 Env of isolate MGRM-AE-007 (HIV-1)"}, "[2]": {"molecular_target": "HIV-1 Env of isolate MGRM-AE-008 (HIV-1)"}, "[3]": {"molecular_target": "HIV-1 Env of isolate MGRM-AG-001 (HIV-1)"}, "[4]": {"molecular_target": "HIV-1 Env of isolate MGRM-AG-002 (HIV-1)"}, "[5]": {"molecular_target": "HIV-1 Env of isolate MGRM-AG-003 (HIV-1)"}, "[6]": {"molecular_target": "HIV-1 Env of isolate MGRM-AG-005 (HIV-1)"}, "[7]": {"molecular_target": "HIV-1 Env of isolate MGRM-AG-006 (HIV-1)"}, "[8]": {"molecular_target": "HIV-1 Env of isolate MGRM-AG-008 (HIV-1)"}, "[9]": {"molecular_target": "HIV-1 Env of isolate MGRM-AG-009 (HIV-1)"}, "[10]": {"molecular_target": "HIV-1 Env of isolate MGRM-AG-011 (HIV-1)"}, "[11]": {"molecular_target": "HIV-1 Env of isolate MGRM-AG-012 (HIV-1)"}, "[12]": {"molecular_target": "HIV-1 Env of isolate MGRM-AG-013 (HIV-1)"}, "[13]": {"molecular_target": "HIV-1 Env of isolate MGRM-G-025 (subtype G) (HIV-1)"}, "[14]": {"molecular_target": "aMLV envelope (negative control pseudovirus)"}, "[15]": {"molecular_target": "HIV-1 Env of isolate MG RM-D-028 (subtype D) (HIV-1)"}, "[16]": {"molecular_target": "HIV-1 Env of isolate MGRM-AE-004 (HIV-1)"}, "[17]": {"molecular_target": "HIV-1 Env of isolate MGRM-AE-005 (HIV-1)"}, "[18]": {"molecular_target": "HIV-1 Env of isolate MGRM-AE-006 (HIV-1)"}, "[19]": {"molecular_target": "HIV-1 Env of isolate MGRM-F1-010 (subtype F) (HIV-1)"}, "[20]": {"molecular_target": "HIV-1 Env of isolate MGRM-G-001 (HIV-1)"}, "[21]": {"molecular_target": "HIV-1 Env of isolate MGRM-G-004 (HIV-1)"}, "[22]": {"molecular_target": "HIV-1 Env of isolate MGRM-G-006 (HIV-1)"}, "[23]": {"molecular_target": "HIV-1 Env of isolate MGRM-G-009 (HIV-1)"}, "[24]": {"molecular_target": "HIV-1 Env of isolate MGRM-G-011 (HIV-1)"}, "[25]": {"molecular_target": "HIV-1 Env of isolate MGRM-G-013 (HIV-1)"}, "[26]": {"molecular_target": "HIV-1 Env of isolate MGRM-G-014 (HIV-1)"}, "[27]": {"molecular_target": "HIV-1 Env of isolate MGRM-G-015 (HIV-1)"}, "[28]": {"molecular_target": "HIV-1 Env of isolate MGRM-G-016 (HIV-1)"}, "[29]": {"molecular_target": "HIV-1 Env of isolate MGRM-G-017 (HIV-1)"}, "[30]": {"molecular_target": "HIV-1 Env of isolate MGRM-G-019 (HIV-1)"}, "[31]": {"molecular_target": "HIV-1 Env of isolate MGRM-G-027 (HIV-1)"}, "[32]": {"molecular_target": "HIV-1 Env of isolate JRFL (HIV-1)"}, "[33]": {"molecular_target": "HIV-1 Env of isolate MGRM-Chronic-B-010 (HIV-1)"}, "[34]": {"molecular_target": "HIV-1 Env of isolate MGRM-Chronic-B-011 (HIV-1)"}, "[35]": {"molecular_target": "HIV-1 Env of isolate MGRM-Chronic-B-012 (HIV-1)"}, "[36]": {"molecular_target": "HIV-1 Env of isolate MGRM-Chronic-B-017 (HIV-1)"}, "[37]": {"molecular_target": "HIV-1 Env of isolate MGRM-Chronic-B-018 (HIV-1)"}, "[38]": {"molecular_target": "HIV-1 Env of isolate MGRM-Chronic-B-020 (HIV-1)"}, "[39]": {"molecular_target": "HIV-1 Env of isolate MGRM-Chronic-B-023 (HIV-1)"}, "[40]": {"molecular_target": "HIV-1 Env of isolate MGRM-Chronic-B-024 (HIV-1)"}}, "data": [{"substance": "PGT-143 (4980_N08) (antibody)", "values": [{"measurement": "IC50", "setting": "[1]", "result": 13.6, "unit": "µg/mL"}, {"measurement": "IC50", "setting": "[2]", "result": 0.135, "unit": "µg/mL"}, {"measurement": "IC50", "setting": "[3]", "result": 18.9, "unit": "µg/mL"}, {"measurement": "IC50", "setting": "[4]", "result": 0.076, "unit": "µg/mL"}, {"measurement": "IC50", "setting": "[5]", "result": "> 50", "unit": "µg/mL"}, {"measurement": "IC50", "setting": "[6]", "result": 1.11, "unit": "µg/mL"}, {"measurement": "IC50", "setting": "[7]", "result": "> 50", "unit": "µg/mL"}, {"measurement": "IC50", "setting": "[8]", "result": 34, "unit": "µg/mL"}, {"measurement": "IC50", "setting": "[9]", "result": "> 50", "unit": "µg/mL"}, {"measurement": "IC50", "setting": "[10]", "result": 0.156, "unit": "µg/mL"}, {"measurement": "IC50", "setting": "[11]", "result": "> 50", "unit": "µg/mL"}, {"measurement": "IC50", "setting": "[12]", "result": "> 50", "unit": "µg/mL"}, {"measurement": "neutralization IC50", "setting": "[13]", "result": "> 50", "unit": "µg/mL"}, {"measurement": "neutralization IC50", "setting": "[14]", "result": "> 50", "unit": "µg/mL"}]}, {"substance": "5145_B14 (PGT-127) (antibody)", "values": [{"measurement": "IC50 (µg/mL), pseudovirus neutralization", "setting": "[15]", "result": "> 50", "unit": "µg/mL"}, {"measurement": "neutralization IC50", "setting": "[16]", "result": "> 50", "unit": "µg/mL"}, {"measurement": "neutralization IC50", "setting": "[17]", "result": "> 50", "unit": "µg/mL"}, {"measurement": "neutralization IC50", "setting": "[18]", "result": "> 50", "unit": "µg/mL"}, {"measurement": "neutralization IC50", "setting": "[1]", "result": "> 50", "unit": "µg/mL"}, {"measurement": "neutralization IC50", "setting": "[2]", "result": "> 50", "unit": "µg/mL"}, {"measurement": "IC50 (µg/mL), pseudovirus neutralization", "setting": "[19]", "result": "> 50", "unit": "µg/mL"}, {"measurement": "IC50, pseudovirus neutralization", "setting": "[20]", "result": 0.113, "unit": "µg/mL"}, {"measurement": "IC50, pseudovirus neutralization", "setting": "[21]", "result": "> 50", "unit": "µg/mL"}, {"measurement": "IC50, pseudovirus neutralization", "setting": "[22]", "result": "> 50", "unit": "µg/mL"}, {"measurement": "IC50, pseudovirus neutralization", "setting": "[23]", "result": "> 50", "unit": "µg/mL"}, {"measurement": "IC50, pseudovirus neutralization", "setting": "[24]", "result": "> 50", "unit": "µg/mL"}, {"measurement": "IC50, pseudovirus neutralization", "setting": "[25]", "result": 7.7, "unit": "µg/mL"}, {"measurement": "IC50, pseudovirus neutralization", "setting": "[26]", "result": 0.009, "unit": "µg/mL"}, {"measurement": "IC50, pseudovirus neutralization", "setting": "[27]", "result": "> 50", "unit": "µg/mL"}, {"measurement": "IC50, pseudovirus neutralization", "setting": "[28]", "result": "> 50", "unit": "µg/mL"}, {"measurement": "IC50, pseudovirus neutralization", "setting": "[29]", "result": "> 50", "unit": "µg/mL"}, {"measurement": "IC50, pseudovirus neutralization", "setting": "[30]", "result": 0.429, "unit": "µg/mL"}, {"measurement": "IC50, pseudovirus neutralization", "setting": "[31]", "result": "> 50", "unit": "µg/mL"}, {"measurement": "IC50, pseudovirus neutralization", "setting": "[14]", "result": "> 50", "unit": "µg/mL"}]}, {"substance": "VRC01 (antibody)", "values": [{"measurement": "IC50", "setting": "[32]", "result": 0.034, "unit": "µg/mL"}, {"measurement": "IC50", "setting": "[1]", "result": 0.835, "unit": "µg/mL"}, {"measurement": "IC50", "setting": "[2]", "result": 1.72, "unit": "µg/mL"}, {"measurement": "IC50", "setting": "[3]", "result": 0.228, "unit": "µg/mL"}, {"measurement": "IC50", "setting": "[4]", "result": 0.95, "unit": "µg/mL"}, {"measurement": "IC50", "setting": "[5]", "result": 0.043, "unit": "µg/mL"}, {"measurement": "IC50", "setting": "[6]", "result": 0.091, "unit": "µg/mL"}, {"measurement": "IC50", "setting": "[7]", "result": 0.344, "unit": "µg/mL"}, {"measurement": "IC50", "setting": "[8]", "result": 0.124, "unit": "µg/mL"}, {"measurement": "IC50", "setting": "[9]", "result": "> 50", "unit": "µg/mL"}, {"measurement": "IC50", "setting": "[10]", "result": 0.084, "unit": "µg/mL"}, {"measurement": "IC50", "setting": "[11]", "result": 0.031, "unit": "µg/mL"}, {"measurement": "IC50", "setting": "[12]", "result": 0.197, "unit": "µg/mL"}, {"measurement": "neutralization IC50", "setting": "[33]", "result": 0.156, "unit": "µg/mL"}, {"measurement": "neutralization IC50", "setting": "[34]", "result": 0.587, "unit": "µg/mL"}, {"measurement": "neutralization IC50", "setting": "[35]", "result": 1.03, "unit": "µg/mL"}, {"measurement": "neutralization IC50", "setting": "[36]", "result": 0.141, "unit": "µg/mL"}, {"measurement": "neutralization IC50", "setting": "[37]", "result": 0.328, "unit": "µg/mL"}, {"measurement": "neutralization IC50", "setting": "[38]", "result": 0.424, "unit": "µg/mL"}, {"measurement": "neutralization IC50", "setting": "[39]", "result": 0.275, "unit": "µg/mL"}, {"measurement": "neutralization IC50", "setting": "[40]", "result": 0.377, "unit": "µg/mL"}, {"measurement": "neutralization IC50", "setting": "[13]", "result": 0.292, "unit": "µg/mL"}, {"measurement": "neutralization IC50", "setting": "[14]", "result": "> 50", "unit": "µg/mL"}]}, {"substance": "PGV04 (antibody)", "values": [{"measurement": "IC50 (µg/mL), pseudovirus neutralization", "setting": "[16]", "result": 0.183, "unit": "µg/mL"}, {"measurement": "IC50 (µg/mL), pseudovirus neutralization", "setting": "[17]", "result": 0.051, "unit": "µg/mL"}, {"measurement": "IC50 (µg/mL), pseudovirus neutralization", "setting": "[18]", "result": "> 50", "unit": "µg/mL"}, {"measurement": "IC50 (µg/mL), pseudovirus neutralization", "setting": "[1]", "result": 5.75, "unit": "µg/mL"}, {"measurement": "IC50 (µg/mL), pseudovirus neutralization", "setting": "[2]", "result": 1.51, "unit": "µg/mL"}, {"measurement": "IC50 (µg/mL), pseudovirus neutralization", "setting": "[3]", "result": 0.218, "unit": "µg/mL"}, {"measurement": "IC50 (µg/mL), pseudovirus neutralization", "setting": "[4]", "result": 0.879, "unit": "µg/mL"}, {"measurement": "IC50 (µg/mL), pseudovirus neutralization", "setting": "[5]", "result": 0.058, "unit": "µg/mL"}, {"measurement": "IC50 (µg/mL), pseudovirus neutralization", "setting": "[6]", "result": 0.027, "unit": "µg/mL"}, {"measurement": "IC50 (µg/mL), pseudovirus neutralization", "setting": "[7]", "result": 1.23, "unit": "µg/mL"}, {"measurement": "IC50 (µg/mL), pseudovirus neutralization", "setting": "[8]", "result": 2.48, "unit": "µg/mL"}, {"measurement": "IC50 (µg/mL), pseudovirus neutralization", "setting": "[9]", "result": 0.148, "unit": "µg/mL"}, {"measurement": "IC50 (µg/mL), pseudovirus neutralization", "setting": "[10]", "result": 0.071, "unit": "µg/mL"}, {"measurement": "IC50 (µg/mL), pseudovirus neutralization", "setting": "[11]", "result": 0.04, "unit": "µg/mL"}, {"measurement": "IC50 (µg/mL), pseudovirus neutralization", "setting": "[12]", "result": 0.03, "unit": "µg/mL"}, {"measurement": "neutralization IC50", "setting": "[13]", "result": 1.61, "unit": "µg/mL"}, {"measurement": "neutralization IC50", "setting": "[14]", "result": "> 50", "unit": "µg/mL"}]}]}
